T1: EMR2 (EGF-like module-containing mucin-like hormone receptor-like 2) isoform 4 ectodomain, purified and … (UniProt Q9UHX3-4 24-447, limits assumed, biotinylated in vitro using the BirA enzyme)
T1 construct: extracellular domain; Close homolog of CD97 used as specificity control
T1 sequence (looked up): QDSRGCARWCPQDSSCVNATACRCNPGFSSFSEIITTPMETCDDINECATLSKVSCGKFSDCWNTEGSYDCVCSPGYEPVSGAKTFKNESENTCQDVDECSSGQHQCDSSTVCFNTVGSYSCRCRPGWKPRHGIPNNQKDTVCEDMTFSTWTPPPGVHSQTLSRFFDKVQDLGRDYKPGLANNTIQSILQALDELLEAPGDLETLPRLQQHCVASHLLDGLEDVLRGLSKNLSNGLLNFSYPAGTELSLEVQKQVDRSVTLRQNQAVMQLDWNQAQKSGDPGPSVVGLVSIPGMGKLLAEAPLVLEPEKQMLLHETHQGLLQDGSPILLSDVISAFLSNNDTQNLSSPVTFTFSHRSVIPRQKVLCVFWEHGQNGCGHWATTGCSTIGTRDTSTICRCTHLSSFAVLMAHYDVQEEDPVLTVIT

T2: CD97 (ADGRE5) isoform 1 ectodomain, purified and biotinylated (human, UniProt P48960 21-552, limits assumed, biotinylated in vitro using the BirA enzyme)
T2 construct: the whole entry for isoform 1 is named here; also called CD97 isoform 1; Biotinylated CD97 isoform 1
T2 sequence: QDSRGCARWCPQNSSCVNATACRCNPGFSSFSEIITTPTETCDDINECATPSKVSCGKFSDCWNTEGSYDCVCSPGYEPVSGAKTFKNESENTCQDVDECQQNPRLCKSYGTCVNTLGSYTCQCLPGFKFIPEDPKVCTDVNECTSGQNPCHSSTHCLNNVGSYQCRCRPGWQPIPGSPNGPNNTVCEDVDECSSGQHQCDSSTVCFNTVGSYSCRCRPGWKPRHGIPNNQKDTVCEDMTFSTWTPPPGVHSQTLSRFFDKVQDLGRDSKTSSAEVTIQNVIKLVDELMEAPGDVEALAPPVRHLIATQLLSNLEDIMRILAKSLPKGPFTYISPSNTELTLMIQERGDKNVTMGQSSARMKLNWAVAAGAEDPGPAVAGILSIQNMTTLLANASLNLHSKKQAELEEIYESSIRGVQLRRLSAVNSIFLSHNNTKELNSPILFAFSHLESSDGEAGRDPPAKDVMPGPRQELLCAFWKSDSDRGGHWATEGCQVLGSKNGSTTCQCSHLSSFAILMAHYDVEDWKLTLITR

T3: CD97 (ADGRE5) isoform 2 ectodomain, purified and biotinylated (human, UniProt P48960 21-552, biotinylated in vitro using the BirA enzyme)
T3 construct: the whole entry for isoform 2 is named here; also called CD97 isoform 2
T3 sequence: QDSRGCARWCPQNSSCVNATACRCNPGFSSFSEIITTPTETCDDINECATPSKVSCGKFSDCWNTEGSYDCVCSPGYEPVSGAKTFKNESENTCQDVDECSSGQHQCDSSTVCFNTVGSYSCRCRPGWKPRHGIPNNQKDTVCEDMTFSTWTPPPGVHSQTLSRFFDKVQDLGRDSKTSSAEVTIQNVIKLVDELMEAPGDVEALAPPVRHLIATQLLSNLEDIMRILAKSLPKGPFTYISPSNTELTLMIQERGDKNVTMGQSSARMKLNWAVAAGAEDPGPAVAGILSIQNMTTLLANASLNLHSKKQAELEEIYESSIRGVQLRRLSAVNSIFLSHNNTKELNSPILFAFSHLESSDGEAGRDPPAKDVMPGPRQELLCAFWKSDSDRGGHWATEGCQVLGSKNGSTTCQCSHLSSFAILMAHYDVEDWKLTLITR

T4: CD97 isoform 1 (Homo sapiens, UniProt P48960)
T4 construct: The genes encoding the ectodomains of CD97 (isoforms 1 and 2) and EMR2 (isoforms 1 and 4); inferred from IMAC purification; inferred from BirA biotinylation; made in house; host or cells: expi293F
T4 sequence (P48960 21-552 limits assumed): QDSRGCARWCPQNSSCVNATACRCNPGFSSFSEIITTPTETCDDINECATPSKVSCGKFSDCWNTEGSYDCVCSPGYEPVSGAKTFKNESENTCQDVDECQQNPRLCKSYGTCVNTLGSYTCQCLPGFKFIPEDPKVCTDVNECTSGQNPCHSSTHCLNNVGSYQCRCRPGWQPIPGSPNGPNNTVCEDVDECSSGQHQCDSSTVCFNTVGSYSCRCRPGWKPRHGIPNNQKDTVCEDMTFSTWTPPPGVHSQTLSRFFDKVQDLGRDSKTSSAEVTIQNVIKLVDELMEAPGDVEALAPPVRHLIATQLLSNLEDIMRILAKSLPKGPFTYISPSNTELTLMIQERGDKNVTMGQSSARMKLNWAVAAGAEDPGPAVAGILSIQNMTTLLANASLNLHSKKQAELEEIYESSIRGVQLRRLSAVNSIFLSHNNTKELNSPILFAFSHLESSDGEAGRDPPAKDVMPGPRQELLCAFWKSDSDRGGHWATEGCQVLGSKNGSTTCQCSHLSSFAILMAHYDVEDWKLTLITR


Columns and labels:
[1] = target: T1, EMR2 (EGF-like module-containing …); test: bead-based binding titration (biotinylated antigen on streptavidin beads, flow cytometry)
[2] = target: T2, CD97 (ADGRE5) isoform 1 ectodomain, …; test: bead-based binding titration (biotinylated antigen on streptavidin beads, flow cytometry), 1:1 fit
[3] = target: T3, CD97 (ADGRE5) isoform 2 ectodomain, …; test: as above
[4] = target: T4, CD97 isoform 1; test: Bead-based binding assay of Fab clones; conditions: for binding of A8 CDRH3 mutants to CD97 isoform 1: Fab format, compared with wild type A8
Method: Binding titration of the Fab clones was performed by a bead binding assay, as described previously (7,8). Briefly, biotinylated antigens were immobilized on Dynabeads M-280 streptavidin (Thermo Fisher). The biotinylated Fab clones were titrated into a solution containing the antigen-coated beads. After incubation, the beads were washed three times and incubated with anti-human F(ab′)2-Alexa Fluor 647 (Jackson ImmunoResearch). The beads were further washed three times and analyzed on a HyperCyt (Intellicyt).
The genes encoding the ectodomains of CD97 (isoforms 1 and 2) and EMR2 (isoforms 1 and 4) (FIG. 1) were synthesized (Integrated DNA Technologies) and cloned into the mammalian expression vector pBCAG. The expi293F cells (Thermo Fisher) were transfected with the vectors using the ExpiFectamine 293 transfection kit (Thermo Fisher) according to the manufacturer's protocol. The cells were incubated at 37° C. with 8% CO2. The proteins were purified from the cell culture supernatant by immobilized metal affinity chromatography (IMAC). The purified proteins were biotinylated in vitro using the BirA enzyme in the presence of 0.5 mM Biotin and 10 mM ATP. After the removal of the BirA enzyme by IMAC, the proteins were further purified by size exclusion chromatography using a Superdex 200 10/300 Increase (Cytiva). The purity of the proteins was confirmed by SDS-PAGE.

Row | Molecule | binding result [1] | Kd [2] [nM] | Kd [3] [nM] | binding to CD97 isoform 1 ([4]; Fab clones of the first antibody discovery campaign, purified biotinylated antigen on beads) | binding of A8 CDRH3 mutants to CD97 isoform 1 [4]
1 | Fab 2X10 (Fab, V domains shown, second discovery campaign; biotinylated Fab in the bead assay; also called Antibody Clone 2X10) VH: EVQLVESGGGLVQPGGSLRLSCAASGFTFSSSSIHWVRQAPGKGLEWVASISSSSGSTSYADSVKGRFTISADTSKNTAYLQMNSLRAEDTAVYYCARSYWDMYIYWYYYVKQSRGMDYWGQGTLVTVSS VL: DIQMTQSPSSLSASVGDRVTITCRASQSVSSAVAWYQQKPGKAPKLLIYSASSLYSGVPSRFSGSRSGTDFTLTISSLQPEDFATYYCQQSSSSLITFGQGTKVEIKR | no binding (tested: 100 nM) | 54 | 41 |  | 
2 | Fab 2Z3 (Fab, V domains shown, second discovery campaign; biotinylated Fab in the bead assay; also called Antibody Clone 2Z3) VH: EVQLVESGGGLVQPGGSLRLSCAASGFTFSSSSIHWVRQAPGKGLEWVASISSSSGSTSYADSVKGRFTISADTSKNTAYLQMNSLRAEDTAVYYCARVLLGKFWYYNYYEYSAMDYWGQGTLVTVSS VL: DIQMTQSPSSLSASVGDRVTITCRASQSVSSAVAWYQQKPGKAPKLLIYSASSLYSGVPSRFSGSRSGTDFTLTISSLQPEDFATYYCQQSSSSLITFGQGTKVEIKR | no binding (tested: 50 nM) | 7.1 | 7.1 |  | 
3 | Fab 2A5 (Fab, V domains shown, second discovery campaign; biotinylated Fab in the bead assay; also called Antibody Clone 2A5) VH: EVQLVESGGGLVQPGGSLRLSCAASGFTFSSSSIHWVRQAPGKGLEWVASISSSYGSTSYADSVKGRFTISADTSKNTAYLQMNSLRAEDTAVYYCARGWAYSYWYYSHYYEYEVALDYWGQGTLVTVSS VL: DIQMTQSPSSLSASVGDRVTITCRASQSVSSAVAWYQQKPGKAPKLLIYSASSLYSGVPSRFSGSRSGTDFTLTISSLQPEDFATYYCQQSKFSSPVTFGQGTKVEIKR | no binding (tested: 50 nM) | 2.6 | 2 |  | 
4 | Fab 2X12 (Fab, V domains shown, second discovery campaign; biotinylated Fab in the bead assay; also called Antibody Clone 2X12) VH: EVQLVESGGGLVQPGGSLRLSCAASGFTISSSSIHWVRQAPGKGLEWVASISSSSSYTSYADSVKGRFTISADTSKNTAYLQMNSLRAEDTAVYYCARMDISYYYYEWGFESAYYGMDYWGQGTLVTVSS VL: DIQMTQSPSSLSASVGDRVTITCRASQSVSSAVAWYQQKPGKAPKLLIYSASSLYSGVPSRFSGSRSGTDFTLTISSLQPEDFATYYCQQWWGPELVTFGQGTKVEIKR | no binding (tested: 100 nM) | 22 | 29 |  | 
5 | C27: anti-CD97 antibody clone, VL SEQ ID NO: 21, VH SEQ ID NO: 46 (antibody, V domains shown) VH: EVQLVESGGGLVQPGGSLRLSCAASGFTLSSSSIHWVRQAPGKGLEWVASIYSYYGSTYYADSVKGRFTISADTSKNTAYLQMNSLRAEDTAVYYCARYRGNMYYWESWYGSYWALDYWGQGTLVTVSS VL: DIQMTQSPSSLSASVGDRVTITCRASQSVSSAVAWYQQKPGKAPKLLIYSASSLYSGVPSRFSGSRSGTDFTLTISSLQPEDFATYYCQQSSSSLITFGQGTKVEIKRTV |  |  |  | bound only to CD97 isoform 1 | 
6 | A8 W100eHA: A8 mutant, VL SEQ ID NO: 9, VH SEQ ID NO: 110 (antibody, V domains shown) VH: EVQLVESGGGLVQPGGSLRLSCAASGFTISSYSIHWVRQAPGKGLEWVASISPYYGSTSYADSVKGRFTISADTSKNTAYLQMNSLRAEDTAVYYCARSWYYYEQNPYAYQKEEQALDYWGQGTLVTVSS VL: DIQMTQSPSSLSASVGDRVTITCRASQSVSSAVAWYQQKPGKAPKLLIYSASSLYSGVPSRFSGSRSGTDFTLTISSLQPEDFATYYCQQSVYSPVTFGQGTKVEIKRTV |  |  |  |  | substantially reduced or abolished binding to CD97
7 | A8 N100bHE: A8 mutant, VL SEQ ID NO: 9, VH SEQ ID NO: 109 (antibody, V domains shown) VH: EVQLVESGGGLVQPGGSLRLSCAASGFTISSYSIHWVRQAPGKGLEWVASISPYYGSTSYADSVKGRFTISADTSKNTAYLQMNSLRAEDTAVYYCARSWYYYEQEPYWYQKEEQALDYWGQGTLVTVSS VL: DIQMTQSPSSLSASVGDRVTITCRASQSVSSAVAWYQQKPGKAPKLLIYSASSLYSGVPSRFSGSRSGTDFTLTISSLQPEDFATYYCQQSVYSPVTFGQGTKVEIKRTV |  |  |  |  | substantially reduced or abolished binding to CD97
